According to paper PMC4499152:
Like-named read-outs stand apart in the source and are kept apart here.

Columns and labels:
RPA complex [1] = target: T1, RPA complex (UniProt P27694;P15927;P35244 1-616;1-270;1-121); experiment: pull-down
RPA complex [2] = target: T1, RPA complex; experiment: pull-down; remark: listed apart in the source

T1 sequence (P27694 whole entry, chain 1 of 3): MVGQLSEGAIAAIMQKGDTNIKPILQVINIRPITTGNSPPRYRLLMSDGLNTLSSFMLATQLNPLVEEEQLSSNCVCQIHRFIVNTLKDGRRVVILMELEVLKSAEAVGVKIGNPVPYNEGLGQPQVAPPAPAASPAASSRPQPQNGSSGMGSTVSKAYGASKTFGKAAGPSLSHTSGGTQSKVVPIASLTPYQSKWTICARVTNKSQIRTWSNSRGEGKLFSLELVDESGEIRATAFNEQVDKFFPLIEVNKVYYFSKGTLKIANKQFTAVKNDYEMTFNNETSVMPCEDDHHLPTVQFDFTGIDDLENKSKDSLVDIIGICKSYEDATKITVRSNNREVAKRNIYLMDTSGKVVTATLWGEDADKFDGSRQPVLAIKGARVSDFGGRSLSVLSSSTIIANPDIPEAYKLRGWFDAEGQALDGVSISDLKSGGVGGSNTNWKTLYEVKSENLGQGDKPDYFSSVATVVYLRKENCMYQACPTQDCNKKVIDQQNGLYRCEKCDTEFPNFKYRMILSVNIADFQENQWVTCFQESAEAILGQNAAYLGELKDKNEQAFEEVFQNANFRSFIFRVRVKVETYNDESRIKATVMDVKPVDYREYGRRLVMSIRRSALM
T1 sequence (P15927 whole entry, chain 2 of 3): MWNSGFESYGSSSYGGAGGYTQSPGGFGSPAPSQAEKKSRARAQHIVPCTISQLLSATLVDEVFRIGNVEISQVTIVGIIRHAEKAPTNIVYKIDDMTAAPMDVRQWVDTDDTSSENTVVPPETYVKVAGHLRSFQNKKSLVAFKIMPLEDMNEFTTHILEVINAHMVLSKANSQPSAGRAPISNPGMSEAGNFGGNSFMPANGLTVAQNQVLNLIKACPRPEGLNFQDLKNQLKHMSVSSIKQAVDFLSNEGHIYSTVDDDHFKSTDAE
T1 sequence (P35244 whole entry, chain 3 of 3): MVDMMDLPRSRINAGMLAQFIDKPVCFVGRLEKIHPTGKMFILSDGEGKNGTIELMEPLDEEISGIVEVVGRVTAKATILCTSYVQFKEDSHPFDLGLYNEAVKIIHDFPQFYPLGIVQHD

Binder	binding result (RPA complex [1])	binding result (RPA complex [2])
TTAGGGTTAGGGTTAGGGTTAGGGTTAGGGTTAGGGTTAGGGTTAGGG (ssDNA) [ssTEL]	binds	
TTTGCGTTTGCGTTTGCGTTTGCGTTTGCGTTTGCGTTTGCGTTTGCG (ssDNA) [ssMUT]		binds
